The values below come from paper PMC3602430, “Identification of a Missing Link in the Evolution of an Enzyme into a Transcriptional Regulator” (PLoS ONE, 2013).

For series [1], the target named is T1, BzdR (CBzdR, C-terminal effector-binding domain).
T1 construct: His6-CBzdR, residues 131–298
The series can be described thus: intrinsic protein fluorescence titration, one-site model. Details: species or system Azoarcus sp. CIB.

In series [2] the target is NBzdR, N-terminal DNA-binding domain of BzdR (Azoarcus sp. CIB). The series is described as follows: AUC; sedimentation equilibrium of the purified proteins in solution, data fitted to dimer and monomer species; sedimentation velocity showed single species (1.8 and 2.3 S); conditions not shown.
For series [3], the target named is NBzdRL, N-terminal domain of BzdR fused to its linker region (Azoarcus sp. CIB). Described as above.
Series [4] deals with Q1 chimera (NBzdRL fused to E. coli shikimate kinase I) (Azoarcus sp. CIB | E. coli) (UniProt P0A6D7). The series can be described thus: AUC; sedimentation velocity of purified His6-tagged proteins, c(s) distribution; s-value did not change significantly over 1-30 µM protein.
Substrate in series [5]: O=C(O)C1=C[C@@H](O)[C@@H](O)[C@H](O)C1
The series can be described thus: coupled pyruvate kinase/lactate dehydrogenase shikimate kinase assay (Km). The class given is biochemical, Escherichia coli. Particulars: Mg2+, ATP.

On to `CC(C)(COP(=O)(O)OP(=O)(O)OC[C@H]1O[C@@H](n2cnc3c(N)ncnc32)[C@H](O)[C@@H]1OP(=O)(O)O)[C@@H](O)C(=O)NCCC(=O)NCCSC(=O)c1ccccc1` [benzoyl-CoA], for which the Kd in series [1] came to 203 ± 35 µM.
On to “NBzdR, N-terminal DNA-binding domain of BzdR (domain or fragment)”, for which the stoichiometry N in series [2] was 2.
In series [3], “NBzdRL, N-terminal domain of BzdR fused to its linker region (domain or fragment)” yielded a stoichiometry N of 2.
With “Q1 chimera (NBzdRL fused to E. coli shikimate kinase I) (from UniProt P0A6D7 1-173)”, the stoichiometry N in series [4] is 2.

B1: shikimate kinase I (SKI) (Escherichia coli K-12) (protein)
chain: AEKRNIFLVGPMGAGKSTIGRQLAQQLNMEFYDSDQEIEKRTGADVGWVFDLEGEEGFRDREEKVINELTEKQGIVLATGGGSVKSRETRNRLSARGVVVYLETTIEKQLARTQRDKKRPLLHVETPPREVLEALANERNPLYEEIADVTIRTDDQSAKVVANQIIHMLESN
notes: His6-SKI
As for B1, in series [5], the Km is on record as 0.4 mM.
